# T1: human ANG2-RBD-Fc-region fusion (human, UniProt O15123 275-496, limits assumed)
# T1 construct: not shown: Fc-region
# T1 sequence: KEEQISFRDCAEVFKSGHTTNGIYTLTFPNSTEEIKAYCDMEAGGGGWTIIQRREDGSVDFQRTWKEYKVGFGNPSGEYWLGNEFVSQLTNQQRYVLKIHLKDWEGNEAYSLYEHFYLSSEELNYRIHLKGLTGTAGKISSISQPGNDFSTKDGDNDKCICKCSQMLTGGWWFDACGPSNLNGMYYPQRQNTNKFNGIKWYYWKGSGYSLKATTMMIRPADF
# Target: T1, human ANG2-RBD-Fc-region fusion
# Experiment: SPR, human ANG2-RBD-Fc captured, 1:1 model
Binder,koff [s⁻¹],kon [M⁻¹ s⁻¹],t1/2 [s],t1/2 (S) [s],Kd [nM]
"0025 (Fab, CrossFab CL-CH1, valency 1; differences VH: T28N, T30V; VL: wt) heavy: not shown light: SYVLTQPPSVSVAPGQTARITCGGNNIGSKSVHWYQQKPGQAPVLVVYDDSDRPSGIPERFSGSNSGNTATLTISRVEAGDEADYYCQVWDSSSDHWVFGGGTKLTVLSSASTKGPSVFPLAPSSKSTSGGTAALGCLVKDYFPEPVTVSWNSGALTSGVHTFPAVLQSSGLYSLSSVVTVPSSSLGTQTYICNVNHKPSNTKVDKKVEPKSC",0.0702,1.87e+06,10,–,–
"0058 (Fab, CrossFab CL-CH1, valency 1; differences VH: S100dP, G100jA, T28N, T30A, D100bT; VL: wt) heavy: not shown light: SYVLTQPPSVSVAPGQTARITCGGNNIGSKSVHWYQQKPGQAPVLVVYDDSDRPSGIPERFSGSNSGNTATLTISRVEAGDEADYYCQVWDSSSDHWVFGGGTKLTVLSSASTKGPSVFPLAPSSKSTSGGTAALGCLVKDYFPEPVTVSWNSGALTSGVHTFPAVLQSSGLYSLSSVVTVPSSSLGTQTYICNVNHKPSNTKVDKKVEPKSC",0.0383,1.8e+06,18,–,–
"0060 (Fab, CrossFab CL-CH1, valency 1; differences VH: S100dP, G100jA, T28N, T30A, D100bE; VL: D50T) heavy: not shown light: SYVLTQPPSVSVAPGQTARITCGGNNIGSKSVHWYQQKPGQAPVLVVYDTSDRPSGIPERFSGSNSGNTATLTISRVEAGDEADYYCQVWDSSSDHWVFGGGTKLTVLSSASTKGPSVFPLAPSSKSTSGGTAALGCLVKDYFPEPVTVSWNSGALTSGVHTFPAVLQSSGLYSLSSVVTVPSSSLGTQTYICNVNHKPSNTKVDKKVEPKSC",0.0786,3.72e+06,9,–,–
"XAng2-0156 (Fab, CrossFab CL-CH1, valency 1; differences VH: S100dP, G100jA, T28N, T30A, D100bS; VL: D50T) heavy: not shown light: QPGLTQPPSVSVAPGQTARITCGGNNIGSKSVHWYQQKPGQAPVLVVYDTSDRPSGIPERFSGSNSGNTATLTISRVEAGDEADYYCQVWDSSSDHYVFGTGTKVTVLSSASTKGPSVFPLAPSSKSTSGGTAALGCLVKDYFPEPVTVSWNSGALTSGVHTFPAVLQSSGLYSLSSVVTVPSSSLGTQTYICNVNHKPSNTKVDKKVEPKSC",0.0031,675000,–,224,–
"0042 (Fab, CrossFab CL-CH1, valency 1; differences VH: S100dP, G100jA, T28N, T30K; VL: wt) heavy: not shown light: SYVLTQPPSVSVAPGQTARITCGGNNIGSKSVHWYQQKPGQAPVLVVYDDSDRPSGIPERFSGSNSGNTATLTISRVEAGDEADYYCQVWDSSSDHWVFGGGTKLTVLSSASTKGPSVFPLAPSSKSTSGGTAALGCLVKDYFPEPVTVSWNSGALTSGVHTFPAVLQSSGLYSLSSVVTVPSSSLGTQTYICNVNHKPSNTKVDKKVEPKSC",0.0128,3.22e+06,54,–,–
"0040 (Fab, CrossFab CL-CH1, valency 1; differences VH: S100dP, G100jA, T28N, T30V; VL: wt) heavy: not shown light: SYVLTQPPSVSVAPGQTARITCGGNNIGSKSVHWYQQKPGQAPVLVVYDDSDRPSGIPERFSGSNSGNTATLTISRVEAGDEADYYCQVWDSSSDHWVFGGGTKLTVLSSASTKGPSVFPLAPSSKSTSGGTAALGCLVKDYFPEPVTVSWNSGALTSGVHTFPAVLQSSGLYSLSSVVTVPSSSLGTQTYICNVNHKPSNTKVDKKVEPKSC",0.00592,2.59e+06,117,–,2.3
"XAng2-0026 (Fab, CrossFab CL-CH1, valency 1; differences VH: T28N, T30A; VL: wt) heavy: not shown light: SYVLTQPPSVSVAPGQTARITCGGNNIGSKSVHWYQQKPGQAPVLVVYDDSDRPSGIPERFSGSNSGNTATLTISRVEAGDEADYYCQVWDSSSDHWVFGGGTKLTVLSSASTKGPSVFPLAPSSKSTSGGTAALGCLVKDYFPEPVTVSWNSGALTSGVHTFPAVLQSSGLYSLSSVVTVPSSSLGTQTYICNVNHKPSNTKVDKKVEPKSC",0.0371,2.03e+06,19,–,–
"0027 (Fab, CrossFab CL-CH1, valency 1; differences VH: T28N, T30K; VL: wt) heavy: not shown light: SYVLTQPPSVSVAPGQTARITCGGNNIGSKSVHWYQQKPGQAPVLVVYDDSDRPSGIPERFSGSNSGNTATLTISRVEAGDEADYYCQVWDSSSDHWVFGGGTKLTVLSSASTKGPSVFPLAPSSKSTSGGTAALGCLVKDYFPEPVTVSWNSGALTSGVHTFPAVLQSSGLYSLSSVVTVPSSSLGTQTYICNVNHKPSNTKVDKKVEPKSC",0.165,2.4e+06,4,–,–
"XAng2-0033 (Fab, CrossFab CL-CH1, valency 1; differences VH: T28N, S100dP, G100jA; VL: wt) heavy: not shown light: SYVLTQPPSVSVAPGQTARITCGGNNIGSKSVHWYQQKPGQAPVLVVYDDSDRPSGIPERFSGSNSGNTATLTISRVEAGDEADYYCQVWDSSSDHWVFGGGTKLTVLSSASTKGPSVFPLAPSSKSTSGGTAALGCLVKDYFPEPVTVSWNSGALTSGVHTFPAVLQSSGLYSLSSVVTVPSSSLGTQTYICNVNHKPSNTKVDKKVEPKSC",0.00225,753000,308,–,–
"XAng2-0017 (Fab, CrossFab CL-CH1, valency 1; VL: wt) heavy: not shown light: SYVLTQPPSVSVAPGQTARITCGGNNIGSKSVHWYQQKPGQAPVLVVYDDSDRPSGIPERFSGSNSGNTATLTISRVEAGDEADYYCQVWDSSSDHWVFGGGTKLTVLSSASTKGPSVFPLAPSSKSTSGGTAALGCLVKDYFPEPVTVSWNSGALTSGVHTFPAVLQSSGLYSLSSVVTVPSSSLGTQTYICNVNHKPSNTKVDKKVEPKSC",0.0357,3.03e+06,19,–,–
"0028 (Fab, CrossFab CL-CH1, valency 1; differences VH: T30K; VL: wt) heavy: not shown light: SYVLTQPPSVSVAPGQTARITCGGNNIGSKSVHWYQQKPGQAPVLVVYDDSDRPSGIPERFSGSNSGNTATLTISRVEAGDEADYYCQVWDSSSDHWVFGGGTKLTVLSSASTKGPSVFPLAPSSKSTSGGTAALGCLVKDYFPEPVTVSWNSGALTSGVHTFPAVLQSSGLYSLSSVVTVPSSSLGTQTYICNVNHKPSNTKVDKKVEPKSC",0.259,1.81e+06,3,–,–
"0061 (Fab, CrossFab CL-CH1, valency 1; differences VH: S100dP, G100jA, T28N, T30A, D100bT; VL: D50T) heavy: not shown light: SYVLTQPPSVSVAPGQTARITCGGNNIGSKSVHWYQQKPGQAPVLVVYDTSDRPSGIPERFSGSNSGNTATLTISRVEAGDEADYYCQVWDSSSDHWVFGGGTKLTVLSSASTKGPSVFPLAPSSKSTSGGTAALGCLVKDYFPEPVTVSWNSGALTSGVHTFPAVLQSSGLYSLSSVVTVPSSSLGTQTYICNVNHKPSNTKVDKKVEPKSC",0.0314,1.8e+06,22,–,–
"XAng2-0155 (Fab, CrossFab CL-CH1, valency 1; differences VH: S100dP, G100jA, T28N, T30A; VL: D50T) heavy: not shown light: QPGLTQPPSVSVAPGQTARITCGGNNIGSKSVHWYQQKPGQAPVLVVYDTSDRPSGIPERFSGSNSGNTATLTISRVEAGDEADYYCQVWDSSSDHYVFGTGTKVTVLSSASTKGPSVFPLAPSSKSTSGGTAALGCLVKDYFPEPVTVSWNSGALTSGVHTFPAVLQSSGLYSLSSVVTVPSSSLGTQTYICNVNHKPSNTKVDKKVEPKSC",0.0319,746000,–,22,–
"0074 (Fab, CrossFab CL-CH1, valency 1; differences VH: S100dP, G100jA, T28N, T30A, D100bS; VL: wt) heavy: not shown light: SYVLTQPPSVSVAPGQTARITCGGNNIGSKSVHWYQQKPGQAPVLVVYDDSDRPSGIPERFSGSNSGNTATLTISRVEAGDEADYYCQVWDSSSDHWVFGGGTKLTVLSSASTKGPSVFPLAPSSKSTSGGTAALGCLVKDYFPEPVTVSWNSGALTSGVHTFPAVLQSSGLYSLSSVVTVPSSSLGTQTYICNVNHKPSNTKVDKKVEPKSC",0.0366,2.27e+06,19,–,–
"0057 (Fab, CrossFab CL-CH1, valency 1; differences VH: S100dP, G100jA, T28N, T30A, D100bE; VL: wt) heavy: not shown light: SYVLTQPPSVSVAPGQTARITCGGNNIGSKSVHWYQQKPGQAPVLVVYDDSDRPSGIPERFSGSNSGNTATLTISRVEAGDEADYYCQVWDSSSDHWVFGGGTKLTVLSSASTKGPSVFPLAPSSKSTSGGTAALGCLVKDYFPEPVTVSWNSGALTSGVHTFPAVLQSSGLYSLSSVVTVPSSSLGTQTYICNVNHKPSNTKVDKKVEPKSC",0.0948,3.28e+06,7,–,–

# Target: T1, human ANG2-RBD-Fc-region fusion
# Experiment: SPR, human ANG2; ANG2/VEGF bispecific CrossMab
Binder,Kd [nM],koff [s⁻¹],kon [M⁻¹ s⁻¹],t1/2 [s]
"Xang2-0165 (bispecific antibody, human IgG1, kappa, L234A L235A, ANG2/VEGF bispecific CrossMab CL-CH1, valency for ANG2 1; ANG2 VH: S100dP, G100jA, T30A, T28N; VL: D50T; VEGF: wt2) heavy 1: not shown light 1: SYVLTQPPSVSVAPGQTARITCGGNNIGSKSVHWYQQKPGQAPVLVVYDTSDRPSGIPERFSGSNSGNTATLTISRVEAGDEADYYCQVWDSSSDHWVFGGGTKLTVLSSASTKGPSVFPLAPSSKSTSGGTAALGCLVKDYFPEPVTVSWNSGALTSGVHTFPAVLQSSGLYSLSSVVTVPSSSLGTQTYICNVNHKPSNTKVDKKVEPKSC heavy 2: EVQLVESGGGLVQPGGSLRLSCAASGYDFTHYGMNWVRQAPGKGLEWVGWINTYTGEPTYAADFKRRFTFSLDTSKSTAYLQMNSLRAEDTAVYYCAKYPYYYGTSHWYFDVWGQGTLVTVSSASTKGPSVFPLAPSSKSTSGGTAALGCLVKDYFPEPVTVSWNSGALTSGVHTFPAVLQSSGLYSLSSVVTVPSSSLGTQTYICNVNHKPSNTKVDKKVEPKSCDKTHTCPPCPAPEAAGGPSVFLFPPKPKDTLMASRTPEVTCVVVDVSHEDPEVKFNWYVDGVEVHNAKTKPREEQYNSTYRVVSVLTVLAQDWLNGKEYKCKVSNKALGAPIEKTISKAKGQPREPQVYTLPPCRDELTKNQVSLWCLVKGFYPSDIAVEWESNGQPENNYKTTPPVLDSDGSFFLYSKLTVDKSRWQQGNVFSCSVMHEALHNAYTQKSLSLSPGK light 2: not shown",4,0.00112,302000,619
"Xang2-0166 (bispecific antibody, human IgG1, kappa, L234A L235A, ANG2/VEGF bispecific CrossMab CL-CH1, valency for ANG2 1; ANG2 VH: S100dP, G100jA, T30A, T28N, D100bS; VL: D50T; VEGF: wt2) heavy 1: not shown light 1: SYVLTQPPSVSVAPGQTARITCGGNNIGSKSVHWYQQKPGQAPVLVVYDTSDRPSGIPERFSGSNSGNTATLTISRVEAGDEADYYCQVWDSSSDHWVFGGGTKLTVLSSASTKGPSVFPLAPSSKSTSGGTAALGCLVKDYFPEPVTVSWNSGALTSGVHTFPAVLQSSGLYSLSSVVTVPSSSLGTQTYICNVNHKPSNTKVDKKVEPKSC heavy 2: EVQLVESGGGLVQPGGSLRLSCAASGYDFTHYGMNWVRQAPGKGLEWVGWINTYTGEPTYAADFKRRFTFSLDTSKSTAYLQMNSLRAEDTAVYYCAKYPYYYGTSHWYFDVWGQGTLVTVSSASTKGPSVFPLAPSSKSTSGGTAALGCLVKDYFPEPVTVSWNSGALTSGVHTFPAVLQSSGLYSLSSVVTVPSSSLGTQTYICNVNHKPSNTKVDKKVEPKSCDKTHTCPPCPAPEAAGGPSVFLFPPKPKDTLMASRTPEVTCVVVDVSHEDPEVKFNWYVDGVEVHNAKTKPREEQYNSTYRVVSVLTVLAQDWLNGKEYKCKVSNKALGAPIEKTISKAKGQPREPQVYTLPPCRDELTKNQVSLWCLVKGFYPSDIAVEWESNGQPENNYKTTPPVLDSDGSFFLYSKLTVDKSRWQQGNVFSCSVMHEALHNAYTQKSLSLSPGK light 2: not shown",49,0.0135,275000,51

# From patent publication US20170247441A1 (Hoffmann-La Roche, published 2017)
